According to US20160131656A1 (EXTERNAUTICS S P A, published 2016):

B1: FAT1 25 mer Peptide 3 (peptide)
peptide: IQVEATDKDLGPNGHVTYSIVTDTD
notes: Made by chemical synthesis
B2: FAT1 25 mer Peptide 2 (peptide)
peptide: YHVIATDKDEGPNAEISYSIEDGNE
notes: Made by chemical synthesis
B3: FAT1 25 mer Peptide 1 (peptide)
peptide: REPLYHVIATDKDEGPNAEISYSIE
notes: Made by chemical synthesis
B4: anti-FAT1 monoclonal antibody mAb91.3 (antibody, V domains shown)
VH: VQLQQSGSELVRPGASVKLSCKASGYTFTRSWMHWIKQRPGQGLEWIGNIYPGSGGTNYDEKFKSKATLTVDTSSSTAYMQLSSLTSEDSAIYYCTRSGGQRFDYWGQGTTLTVSS
VL: IVMTQSPAIMSAFSGEKVTMTCSASSSVSSMHWYQQKSSTSPKFWIYDTSKLASGVPGRFSGSGSGNSYSLTISSMEAEDVATYYCFQGSGYPFTFGGGTKLEIKR
notes: Mouse hybridoma antibody, subclass IgG1k; also called anti-FAT1 mAb91.3; the anti-FAT1 monoclonal antibody

Tests used:
[1] = target: B4; assay: FACS competition on HCT-15 cells: mAb91.3 incubated with rising peptide concentration; blocked partner is FAT1 on the cell surface
Experimental: For Flow Cytometry analysis, cells (2×10⁴ per well) were pelleted in 96 U-bottom microplates by centrifugation at 200× g for 5 min at 4° C. and incubated for 1 hour at 4° C. with the appropriate dilutions of anti-FAT1-monoclonal antibody. The cells were washed twice in PBS-5% FCS and incubated for 20 min with the appropriate dilution of R-Phycoerythrin (PE)-conjugated secondary antibodies (Jackson Immuno Research, PA, USA) at 4° C. After washing, cells were analysed by a FACS Canto II flow cytometer (Becton Dickinson). Data were analyzed with FlowJo 8.3.3 program.

FAT1 25 mer Peptide 3 = target: B1; assay: ELISA with 25 mer peptides
Experimental: (§1) For ELISA competition experiments, ELISA plates (Nunc Maxisorp) were coated with 1 μg of the FAT1 recombinant proteins in PBS (pH 7.4) at 4° C. overnight. The plates were washed, treated for 1 h at 37° C. with PBS-1% BSA, and 100 μl aliquots of mAb91.3 at (10 micrograms/ml) in PBS-0.1% Tween were added to the wells in the presence of the 25 mer peptides at concentration ranging from 0.001 to 100 micrograms/ml. After incubation for 2 h at 37° C., plates were again washed and incubated for 1 h at 37° C. with alkaline-phosphatase conjugated goat anti-mouse IgG (Sigma) diluted 1:2500 in PBS-Tween. Thereafter 100 μl of PNPP substrate (Sigma) were added to the samples and incubated for 30 min at room temperature and optical densities were read at 405 nm.

FAT1 25 mer Peptide 2 = target: B2; assay: ELISA with 25 mer peptides
Experimental: as §1

FAT1 25 mer Peptide 1 = target: B3; assay: ELISA with 25 mer peptides
Experimental: as §1

[2] = target: T1, FAT1 recombinant cadherin Domain 8 (amino acid 823 to amino acid 927) (human, UniProt Q14517 826-923, limits assumed); assay: SPR, Biacore T100, 25 C, FAT1 domain amine-coupled to CM5 chip, mAb91.3 injected, 1:1 Langmuir model
T1 construct: Recombinant form purified from E. coli, used in ELISA and SPR; Any tag is not described; A His6-V5 tagged version was also expressed in transfected HeLa and HEK-293T cells for Western blot; also called FAT Domain 8
T1 sequence: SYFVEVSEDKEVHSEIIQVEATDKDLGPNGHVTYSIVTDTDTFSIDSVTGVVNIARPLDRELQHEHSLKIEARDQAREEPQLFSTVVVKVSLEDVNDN
Experimental: (§2) The kinetics of association and dissociation and the Dissociation constants of the anti-FAT1 mAb91.3 were determined using Surface Plasmon Resonance Analysis. Experiments were performed at 25° C. with a BIACORE T100 instrument (Biacore A B, Uppsala, Sweden). The recombinant FAT1 proteins were immobilised on a carboxymethylated dextran-coated (CM5) sensor chip by amine coupling. Briefly, a mixture of 0.2 M 1-ethyl-3-[…]-carbodiimide (EDC) and 0.05 M N-hydroxysuccinimide (NHS) was used for sensor chip surface activation. Proteins pre-concentrated in 0.01 M sodium acetate pH 3.5 were injected at concentration ranging from 2.5 and 5 μg/ml for 10 min and then 1 M ethanolamine pH 8.5 was used to block any remaining activated groups. mAb91.3 was diluted in HBS-EP+buffer at different concentrations from 0.625 μg/ml to 5 μg/ml and injected for 120 s at a flow rate of […] on flow cell 2 and 3. HBS-EP+ buffer was run as control.

[3] = target: T2, FAT1 recombinant cadherin Domain 12 (amino acid 1246 to 1352) (human, UniProt Q14517 1250-1344, limits assumed); assay: as above
T2 construct: Recombinant form purified from E. coli, used in ELISA, SPR and Western blot; Any tag is not described; also called FAT Domain 12
T2 sequence: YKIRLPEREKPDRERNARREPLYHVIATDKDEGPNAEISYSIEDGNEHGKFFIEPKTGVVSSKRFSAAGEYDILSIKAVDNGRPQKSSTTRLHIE
Experimental: as §2

B1
binding result [1]: binds

B2
binding result [1]: binds

B3
IC50 (read off the curve) [1]: ~0.5 µg/mL

B4
binding result (FAT1 25 mer Peptide 3): binds
binding result (FAT1 25 mer Peptide 2): binds
binding result (FAT1 25 mer Peptide 1): binds
Kd [2]: 9.52 nM
koff [2]: 0.00313 s⁻¹
kon [2]: 329000 M⁻¹ s⁻¹
Kd [3]: 18.2 nM
koff [3]: 0.00707 s⁻¹
kon [3]: 389000 M⁻¹ s⁻¹
